The kcat is the maximal rate divided by the concentration of active sites. In general, KM refers to the concentration of substrate that gives half-maximal velocity.

± gives the standard error. For some of these results: Fewer inactive variants are shown than the library holds. Where only a bound is given, the exact number is not on record here.

The chains are these.
B1: glmS ribozyme (parent)
chain: AUAAAAGCGCCAGAACUACAGAAAUGUAGUUGACGAGGAGGAGGUUUAUCGAAUUUUCGGCGGAUGCCUCCAAA

Holding throughout (conditions): with glucosamine-6-phosphate
Variants of B1 are the subject of data set [1]. Nature of the data set: kcat; higher = faster cleavage; RNA array. In a few lines:
(§1)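 Glucosamine-6-phosphate in HEPES/KCl/Mg(OAc)2 buffer, at 40 μM to 10 mM, was flowed over barcoded ribozyme variants transcribed in situ by E. coli RNA polymerase on sequenced MiSeq chips. Tracking was through a hybridised Cy3 probe at 37 °C. kobs, kcat and KM came from exponential decay fits and weighted Michaelis–Menten fits of normalised per-tile medians.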

In data set [2] the parent is B1. In words: KM; higher = weaker cofactor use; RNA array. The method, boiled down: as §1
Data set [3] covers variants of B1. Nature of the data set: self-cleavage kobs at 40 uM GlcN6P; higher = faster cleavage; RNA array. The method, boiled down: as §1
Data set [4] covers variants of B1. Nature of the data set: self-cleavage kobs at 160 uM GlcN6P; higher = faster cleavage; RNA array. In a few lines: as §1
Data set [5] covers variants of B1. Nature of the data set: self-cleavage kobs at 640 uM GlcN6P; higher = faster cleavage; RNA array. The method, boiled down:
as §1

Variants of B1 are the subject of data set [6]. In words: self-cleavage kobs at 2500 uM GlcN6P; higher = faster cleavage; RNA array. The method, boiled down:
as §1

Variants of B1 are the subject of data set [7]. In words: self-cleavage kobs at 10000 uM GlcN6P; higher = faster cleavage; RNA array. In a few lines:
as §1

A39C U47C: the kcat in data set [1] is 0.00157 ± 0.00025 s⁻¹. In addition, the KM in data set [2] stood at 2020 ± 510 µM. Moreover, the “self-cleavage kobs at 40 uM GlcN6P” value in data set [3] amounted to 4.25e-05 ± 5.6e-06 s⁻¹. Moreover, in data set [4], the “self-cleavage kobs at 160 uM GlcN6P” value came out at 0.000105 ± 1.6e-05 s⁻¹. For the same variant, in data set [5], the “self-cleavage kobs at 640 uM GlcN6P” value came to 0.000327 ± 3.9e-05 s⁻¹. For the same variant, the “self-cleavage kobs at 2500 uM GlcN6P” value in data set [6] stood at 0.000934 ± 0.00011 s⁻¹. Further, the “self-cleavage kobs at 10000 uM GlcN6P” value in data set [7] is 0.00131 ± 0.00011 s⁻¹.
For the variant A6U U45A, in data set [1], the kcat amounted to 0.000657 ± 1.8e-05 s⁻¹. Besides, the KM in data set [2] came to 2490 ± 130 µM. Besides, the “self-cleavage kobs at 640 uM GlcN6P” value in data set [5] stood at 0.000134 ± 2e-05 s⁻¹. Also, the “self-cleavage kobs at 2500 uM GlcN6P” value in data set [6] amounted to 0.000337 ± 6.4e-05 s⁻¹. Further, the “self-cleavage kobs at 10000 uM GlcN6P” value in data set [7] was 0.000523 ± 7.7e-05 s⁻¹.
In the case of A15U G40U, in data set [1], the catalytic constant (kcat) amounted to 0.000328 ± 7.5e-05 s⁻¹. The “self-cleavage kobs at 160 uM GlcN6P” value in data set [4] was 2.65e-05 ± 1.3e-05 s⁻¹. Also, the “self-cleavage kobs at 640 uM GlcN6P” value in data set [5] is 0.000117 ± 2.2e-05 s⁻¹. Further, the “self-cleavage kobs at 2500 uM GlcN6P” value in data set [6] was 0.000447 ± 6.9e-05 s⁻¹. For the same variant, the “self-cleavage kobs at 10000 uM GlcN6P” value in data set [7] worked out at 0.000273 ± 2.8e-05 s⁻¹.
As for A15G C61G, the kcat in data set [1] was < 1e-05 s⁻¹. Besides, the “self-cleavage kobs at 40 uM GlcN6P” value in data set [3] is < 1e-05 s⁻¹. Besides, the “self-cleavage kobs at 160 uM GlcN6P” value in data set [4] is < 1e-05 s⁻¹. Moreover, in data set [5], the “self-cleavage kobs at 640 uM GlcN6P” value is < 1e-05 s⁻¹. For the same variant, in data set [6], the “self-cleavage kobs at 2500 uM GlcN6P” value was < 1e-05 s⁻¹.
Regarding G13C A39U, the kcat in data set [1] turned out to be 6.85e-05 ± 4.7e-06 s⁻¹. For the same variant, the KM in data set [2] was 4180 ± 820 µM. The “self-cleavage kobs at 40 uM GlcN6P” value in data set [3] is < 1e-05 s⁻¹. Further, the “self-cleavage kobs at 2500 uM GlcN6P” value in data set [6] came out at 2.64e-05 ± 1e-05 s⁻¹. The “self-cleavage kobs at 10000 uM GlcN6P” value in data set [7] was 4.82e-05 ± 7.1e-06 s⁻¹.
For the variant U31A C68G, in data set [1], the kcat was 3.4e-05 ± 9.3e-07 s⁻¹. In addition, in data set [2], the KM turned out to be 408 ± 78 µM. For the same variant, the “self-cleavage kobs at 2500 uM GlcN6P” value in data set [6] amounted to 2.78e-05 ± 1.1e-05 s⁻¹. The “self-cleavage kobs at 10000 uM GlcN6P” value in data set [7] stood at 3.32e-05 ± 8.1e-06 s⁻¹.
In the case of G66C C71U, the kcat in data set [1] was determined as 0.000716 ± 9.4e-05 s⁻¹. In data set [2], the KM was 975 ± 220 µM. Besides, the “self-cleavage kobs at 160 uM GlcN6P” value in data set [4] came to 9.54e-05 ± 1.7e-05 s⁻¹. Besides, in data set [5], the “self-cleavage kobs at 640 uM GlcN6P” value is 0.000335 ± 5e-05 s⁻¹. Further, the “self-cleavage kobs at 2500 uM GlcN6P” value in data set [6] came to 0.000494 ± 9.6e-05 s⁻¹. The “self-cleavage kobs at 10000 uM GlcN6P” value in data set [7] stood at 0.000631 ± 0.00011 s⁻¹.
For G29C A33G, the kcat in data set [1] was found to be 1.09e-05 ± 3.1e-06 s⁻¹.
For the variant G51U C68A, the kcat in data set [1] was determined as 2.77e-05 ± 5e-06 s⁻¹.
Regarding A33C U54C, the kcat in data set [1] was 0.00039 ± 4.2e-05 s⁻¹. Further, the KM in data set [2] came to 1950 ± 360 µM. Also, in data set [5], the “self-cleavage kobs at 640 uM GlcN6P” value amounted to 0.0001 ± 1.7e-05 s⁻¹. For the same variant, the “self-cleavage kobs at 2500 uM GlcN6P” value in data set [6] was 0.000217 ± 3.9e-05 s⁻¹. In addition, in data set [7], the “self-cleavage kobs at 10000 uM GlcN6P” value turned out to be 0.000325 ± 9.2e-05 s⁻¹.
Regarding G7C C50G, the kcat in data set [1] came to 1.12e-05 ± 2.4e-06 s⁻¹.
As for U46G C68U, the kcat in data set [1] amounted to 0.00128 ± 0.00018 s⁻¹. Also, the KM in data set [2] is 1170 ± 300 µM. The “self-cleavage kobs at 40 uM GlcN6P” value in data set [3] is 5.92e-05 ± 9.5e-06 s⁻¹. In data set [4], the “self-cleavage kobs at 160 uM GlcN6P” value was 0.000148 ± 2.3e-05 s⁻¹. Besides, the “self-cleavage kobs at 640 uM GlcN6P” value in data set [5] was determined as 0.000378 ± 5.2e-05 s⁻¹. In addition, the “self-cleavage kobs at 2500 uM GlcN6P” value in data set [6] came out at 0.00102 ± 0.00018 s⁻¹. Moreover, the “self-cleavage kobs at 10000 uM GlcN6P” value in data set [7] came out at 0.00116 ± 0.00011 s⁻¹.
As to C50U C68G, the kcat in data set [1] came out at 4.93e-05 ± 1.9e-05 s⁻¹. For the same variant, the “self-cleavage kobs at 160 uM GlcN6P” value in data set [4] was 3.88e-05 ± 1.6e-05 s⁻¹. Moreover, in data set [5], the “self-cleavage kobs at 640 uM GlcN6P” value stood at 6.55e-05 ± 1.1e-05 s⁻¹. Also, the “self-cleavage kobs at 2500 uM GlcN6P” value in data set [6] came to 7.89e-05 ± 1.4e-05 s⁻¹.
Consider G41U C71U, for which, in data set [1], the kcat came to 0.000239 ± 3e-05 s⁻¹. In addition, the KM in data set [2] was 885 ± 270 µM. For the same variant, the “self-cleavage kobs at 40 uM GlcN6P” value in data set [3] turned out to be 1.98e-05 ± 8.9e-06 s⁻¹. Besides, the “self-cleavage kobs at 160 uM GlcN6P” value in data set [4] was determined as 4.38e-05 ± 8.4e-06 s⁻¹. Also, in data set [5], the “self-cleavage kobs at 640 uM GlcN6P” value came to 8.95e-05 ± 9.5e-06 s⁻¹. Further, the “self-cleavage kobs at 2500 uM GlcN6P” value in data set [6] is 0.000227 ± 2.9e-05 s⁻¹. For the same variant, the “self-cleavage kobs at 10000 uM GlcN6P” value in data set [7] worked out at 0.000214 ± 1.7e-05 s⁻¹.
Regarding G32A U46G, in data set [1], the catalytic constant (kcat) amounted to 0.000631 ± 7.4e-05 s⁻¹. Further, the KM in data set [2] turned out to be 3220 ± 660 µM. Further, the “self-cleavage kobs at 640 uM GlcN6P” value in data set [5] turned out to be 9.72e-05 ± 1.8e-05 s⁻¹. Besides, the “self-cleavage kobs at 2500 uM GlcN6P” value in data set [6] came to 0.000303 ± 5.6e-05 s⁻¹. Further, the “self-cleavage kobs at 10000 uM GlcN6P” value in data set [7] was 0.000468 ± 6.8e-05 s⁻¹.
On to G29A C71A, for which, in data set [1], the kcat came out at 0.000446 ± 4.4e-05 s⁻¹. The Michaelis-Menten constant (KM) in data set [2] was determined as 592 ± 140 µM. Besides, the “self-cleavage kobs at 640 uM GlcN6P” value in data set [5] was found to be 0.000233 ± 4e-05 s⁻¹. For the same variant, the “self-cleavage kobs at 2500 uM GlcN6P” value in data set [6] was 0.000344 ± 0.0001 s⁻¹. For the same variant, in data set [7], the “self-cleavage kobs at 10000 uM GlcN6P” value was 0.000437 ± 0.00014 s⁻¹.

For the origin of these results see the supplement of paper PMC7125110.
